Results published in IntAct's records for PubMed 23075851.
Each block holds one substance with its values, some of them ahead of it.

Tests used:
asf1b_human ASF1B = asf1b_human ASF1B (UniProt Q9NVP2)
DAXX, Q9UER7-1 [1] = target: DAXX, Q9UER7-1
caf1a_human CHAF1A = caf1a_human CHAF1A (UniProt Q13111)
DAXX, Q9UER7-1 [2] = target: DAXX, Q9UER7-1; remark: listed apart in the source

Sequence of DAXX, Q9UER7-1 (Q9UER7 whole entry): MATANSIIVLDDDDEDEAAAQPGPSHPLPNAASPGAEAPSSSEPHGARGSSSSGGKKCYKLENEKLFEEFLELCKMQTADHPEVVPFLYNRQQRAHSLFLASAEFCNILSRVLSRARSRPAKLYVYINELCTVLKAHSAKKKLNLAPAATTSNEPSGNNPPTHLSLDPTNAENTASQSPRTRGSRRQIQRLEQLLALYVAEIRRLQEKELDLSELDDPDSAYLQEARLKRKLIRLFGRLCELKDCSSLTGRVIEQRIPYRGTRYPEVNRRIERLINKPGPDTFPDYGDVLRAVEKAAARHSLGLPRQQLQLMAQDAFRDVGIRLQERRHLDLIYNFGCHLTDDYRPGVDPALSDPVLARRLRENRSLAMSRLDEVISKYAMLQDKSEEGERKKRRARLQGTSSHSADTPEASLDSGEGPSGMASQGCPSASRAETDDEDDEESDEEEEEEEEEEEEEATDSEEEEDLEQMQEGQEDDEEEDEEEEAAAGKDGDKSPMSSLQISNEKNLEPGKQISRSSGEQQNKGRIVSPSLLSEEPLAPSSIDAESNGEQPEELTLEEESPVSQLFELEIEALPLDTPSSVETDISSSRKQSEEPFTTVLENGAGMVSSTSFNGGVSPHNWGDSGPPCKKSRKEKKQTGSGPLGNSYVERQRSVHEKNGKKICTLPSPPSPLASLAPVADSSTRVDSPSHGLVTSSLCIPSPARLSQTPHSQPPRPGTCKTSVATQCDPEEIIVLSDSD
Sequence of asf1b_human ASF1B (Q9NVP2 whole entry): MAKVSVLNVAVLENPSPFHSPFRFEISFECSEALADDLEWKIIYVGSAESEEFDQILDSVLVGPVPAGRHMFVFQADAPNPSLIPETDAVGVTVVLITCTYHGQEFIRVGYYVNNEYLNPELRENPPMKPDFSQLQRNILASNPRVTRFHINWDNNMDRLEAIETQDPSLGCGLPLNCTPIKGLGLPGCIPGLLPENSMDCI
Sequence of caf1a_human CHAF1A (Q13111 whole entry): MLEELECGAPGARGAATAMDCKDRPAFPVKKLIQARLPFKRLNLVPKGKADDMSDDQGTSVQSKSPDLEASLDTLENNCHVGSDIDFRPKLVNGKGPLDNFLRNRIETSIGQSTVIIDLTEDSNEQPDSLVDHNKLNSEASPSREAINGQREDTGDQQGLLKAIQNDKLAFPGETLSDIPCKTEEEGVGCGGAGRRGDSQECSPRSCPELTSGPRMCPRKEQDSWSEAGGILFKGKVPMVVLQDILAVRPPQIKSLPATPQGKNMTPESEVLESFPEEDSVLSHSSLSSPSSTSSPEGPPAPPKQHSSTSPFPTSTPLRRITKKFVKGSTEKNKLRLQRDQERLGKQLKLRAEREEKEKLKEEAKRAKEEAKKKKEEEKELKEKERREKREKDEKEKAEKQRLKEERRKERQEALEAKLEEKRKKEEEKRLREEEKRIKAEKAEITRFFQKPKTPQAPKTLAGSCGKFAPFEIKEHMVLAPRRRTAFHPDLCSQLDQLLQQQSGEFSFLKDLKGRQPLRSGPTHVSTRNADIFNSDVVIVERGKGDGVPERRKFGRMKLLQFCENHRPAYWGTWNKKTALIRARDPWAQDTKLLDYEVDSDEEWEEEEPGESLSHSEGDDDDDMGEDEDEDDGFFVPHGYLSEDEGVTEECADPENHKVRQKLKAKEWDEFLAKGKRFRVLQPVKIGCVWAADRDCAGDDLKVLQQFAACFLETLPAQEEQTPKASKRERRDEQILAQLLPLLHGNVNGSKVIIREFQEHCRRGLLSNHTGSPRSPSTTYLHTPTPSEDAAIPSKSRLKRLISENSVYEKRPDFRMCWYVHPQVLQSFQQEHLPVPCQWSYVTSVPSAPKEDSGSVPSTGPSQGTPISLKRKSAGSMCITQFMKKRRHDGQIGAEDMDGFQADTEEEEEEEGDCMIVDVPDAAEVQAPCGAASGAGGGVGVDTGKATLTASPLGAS

effect of a mutation on the interaction (asf1b_human ASF1B): disrupting interaction strength
Substance: Histone H3.3 (Homo sapiens) (from UniProt P84243) C111E

Substance: Histone H3.2 (Homo sapiens) (from UniProt Q71DI3) M91G
effect of a mutation on the interaction (DAXX, Q9UER7-1 [1]): increasing interaction strength

Substance: Histone H3.3 (Homo sapiens) (from UniProt P84243) G91M
effect of a mutation on the interaction (caf1a_human CHAF1A): increasing interaction strength | effect of a mutation on the interaction (DAXX, Q9UER7-1 [2]): decreasing interaction strength
